Data reported in publication PMC7367873, “Dissecting the sequence determinants for dephosphorylation by the catalytic subunits of phosphatases PP1 and PP2A” (Nature Communications, 2020).

Legend:
[1] = tested on: GFP-14-3-3β and its binding proteins; assay: GFP-14-3-3β co-IP with LC-MS/MS label-free quantification, untreated versus PP1c-treated; set-up: species or system human
GFP-14-3-3β = GFP-14-3-3β co-IP with LC-MS/MS, untreated GFP-14-3-3β versus GFP control (14-3-3 interactome); format: binding, human
[2] = PP1 vs untreated, LFQ intensities, replicates 1-3
[3] = untreated vs GFP, LFQ intensities, replicates 1-3

Row | Molecule | Difference (log2), PP1 vs untreated ([1]; log2 difference, pairwise comparison PP1 vs untreated, label-free quantification, 3 replicates each) | Difference (log2), PP1 vs untreated [1, 2] [log2] | Difference (log2), untreated vs GFP (GFP-14-3-3β; log2 difference, pairwise comparison untreated vs GFP, label-free quantification, 3 replicates each) | Difference (log2), untreated vs GFP (GFP-14-3-3β; [3]) [log2]
1 | KRT18 (protein, UniProt P05783 2-430, looked up) Keratin, type I cytoskeletal …: SFTTRSTFSTNYRSLGSVQAPSYGARPVSSAASVYAGAGGSGSRISVSRSTSFRGGMGSGGLATGIAGGLAGMGGIQNEKETMQSLNDRLASYLDRVRSLETENRRLESKIREHLEKKGPQVRDWSHYFKIIEDLRAQIFANTVDNARIVLQIDNARLAADDFRVKYETELAMRQSVENDIHGLRKVIDDTNITRLQLETEIEALKEELLFMKKNHEEEVKGLQAQIASSGLTVEVDAPKSQDLAKIMADIRAQYDELARKNREELDKYWSQQIEESTTVVTTQSAEVGAAETTLTELRRTVQSLEIDLDSMRNLKASLENSLREVEARYALQMEQLNGILLHLESELAQTRAEGQRQAQEYEALLNIKVKLEAEIATYRRLLEDGEDFNLGDALDSSNSMQTIQKTTTRRIVDGKVVSETNDTKVLRH | 1.649 |  | -2.259 | 
2 | NOLC1 (protein, UniProt Q14978 1-699, looked up) Nucleolar and coiled-body …: MADAGIRRVVPSDLYPLVLGFLRDNQLSEVANKFAKATGATQQDANASSLLDIYSFWLKSAKVPERKLQANGPVAKKAKKKASSSDSEDSSEEEEEVQGPPAKKAAVPAKRVGLPPGKAAAKASESSSSEESSDDDDEEDQKKQPVQKGVKPQAKAAKAPPKKAKSSDSDSDSSSEDEPPKNQKPKITPVTVKAQTKAPPKPARAAPKIANGKAASSSSSSSSSSSSDDSEEEKAAATPKKTVPKKQVVAKAPVKAATTPTRKSSSSEDSSSDEEEEQKKPMKNKPGPYSSVPPPSAPPPKKSLGTQPPKKAVEKQQPVESSEDSSDESDSSSEEEKKPPTKAVVSKATTKPPPAKKAAESSSDSSDSDSSEDDEAPSKPAGTTKNSSNKPAVTTKSPAVKPAAAPKQPVGGGQKLLTRKADSSSSEEESSSSEEEKTKKMVATTKPKATAKAALSLPAKQAPQGSRDSSSDSDSSSSEEEEEKTSKSAVKKKPQKVAGGAAPSKPASAKKGKAESSNSSSSDDSSEEEEEKLKGKGSPRPQAPKANGTSALTAQNGKAAKNSEEEEEEKKKAAVVVSKSGSLKKRKQNEAAKEAETPQAKKIKLQTPNTFPKRKKGEKRASSPFRRVREEEIEVDSRVADNSFDAKRGAAGDWGERANQVLKFTKGKSFRHEKTKKKRGSYRGGSISVQVNSIKFDSE |  | -0.8521 |  | 2.872
3 | HNRNPA3 (protein, UniProt P51991 1-378, looked up) Heterogeneous nuclear …: MEVKPPPGRPQPDSGRRRRRRGEEGHDPKEPEQLRKLFIGGLSFETTDDSLREHFEKWGTLTDCVVMRDPQTKRSRGFGFVTYSCVEEVDAAMCARPHKVDGRVVEPKRAVSREDSVKPGAHLTVKKIFVGGIKEDTEEYNLRDYFEKYGKIETIEVMEDRQSGKKRGFAFVTFDDHDTVDKIVVQKYHTINGHNCEVKKALSKQEMQSAGSQRGRGGGSGNFMGRGGNFGGGGGNFGRGGNFGGRGGYGGGGGGSRGSYGGGDGGYNGFGGDGGNYGGGPGYSSRGGYGGGGPGYGNQGGGYGGGGGYDGYNEGGNFGGGNYGGGGNYNDFGNYSGQQQSNYGPMKGGSFGGRSSGSPYGGGYGSGGGSGGYGSRRF |  | -0.8983 |  | 1.1202
4 | NOP56 (protein, UniProt O00567 1-594, looked up) Nucleolar protein 56: MVLLHVLFEHAVGYALLALKEVEEISLLQPQVEESVLNLGKFHSIVRLVAFCPFASSQVALENANAVSEGVVHEDLRLLLETHLPSKKKKVLLGVGDPKIGAAIQEELGYNCQTGGVIAEILRGVRLHFHNLVKGLTDLSACKAQLGLGHSYSRAKVKFNVNRVDNMIIQSISLLDQLDKDINTFSMRVREWYGYHFPELVKIINDNATYCRLAQFIGNRRELNEDKLEKLEELTMDGAKAKAILDASRSSMGMDISAIDLINIESFSSRVVSLSEYRQSLHTYLRSKMSQVAPSLSALIGEAVGARLIAHAGSLTNLAKYPASTVQILGAEKALFRALKTRGNTPKYGLIFHSTFIGRAAAKNKGRISRYLANKCSIASRIDCFSEVPTSVFGEKLREQVEERLSFYETGEIPRKNLDVMKEAMVQAEEAAAEITRKLEKQEKKRLKKEKKRLAALALASSENSSSTPEECEEMSEKPKKKKKQKPQEVPQENGMEDPSISFSKPKKKKSFSKEELMSSDLEETAGSTSIPKRKKSTPKEETVNDPEEAGHRSGSKKKRKFSKEEPVSSGPEEAVGKSSSKKKKKFHKASQED |  | -0.8589 |  | 2.987
5 | CDC42EP1 (protein, UniProt Q00587 1-391, looked up) Cdc42 effector protein 1: MPGPQGGRGAATMSLGKLSPVGWVSSSQGKRRLTADMISHPLGDFRHTMHVGRGGDVFGDTSFLSNHGGSSGSTHRSPRSFLAKKLQLVRRVGAPPRRMASPPAPSPAPPAISPIIKNAISLPQLNQAAYDSLVVGKLSFDSSPTSSTDGHSSYGLDSGFCTISRLPRSEKPHDRDRDGSFPSEPGLRRSDSLLSFRLDLDLGPSLLSELLGVMSLPEAPAAETPAPAANPPAPTANPTGPAANPPATTANPPAPAANPSAPAATPTGPAANPPAPAASSTPHGHCPNGVTAGLGPVAEVKSSPVGGGPRGPAGPALGRHWGAGWDGGHHYPEMDARQERVEVLPQARASWESLDEEWRAPQAGSRTPVPSTVQANTFEFADAEEDDEVKV |  | -0.8522 |  | 1.906
6 | FLII (protein, UniProt Q13045 1-1269, looked up) Protein flightless-1 homolog: MEATGVLPFVRGVDLSGNDFKGGYFPENVKAMTSLRWLKLNRTGLCYLPEELAALQKLEHLSVSHNNLTTLHGELSSLPSLRAIVARANSLKNSGVPDDIFKLDDLSVLDLSHNQLTECPRELENAKNMLVLNLSHNSIDTIPNQLFINLTDLLYLDLSENRLESLPPQMRRLVHLQTLVLNGNPLLHAQLRQLPAMTALQTLHLRSTQRTQSNLPTSLEGLSNLADVDLSCNDLTRVPECLYTLPSLRRLNLSSNQITELSLCIDQWVHVETLNLSRNQLTSLPSAICKLSKLKKLYLNSNKLDFDGLPSGIGKLTNLEEFMAANNNLELVPESLCRCPKLRKLVLNKNHLVTLPEAIHFLTEIEVLDVRENPNLVMPPKPADRAAEWYNIDFSLQNQLRLAGASPATVAAAAAAGSGPKDPMARKMRLRRRKDSAQDDQAKQVLKGMSDVAQEKNKKQEESADARAPSGKVRRWDQGLEKPRLDYSEFFTEDVGQLPGLTIWQIENFVPVLVEEAFHGKFYEADCYIVLKTFLDDSGSLNWEIYYWIGGEATLDKKACSAIHAVNLRNYLGAECRTVREEMGDESEEFLQVFDNDISYIEGGTASGFYTVEDTHYVTRMYRVYGKKNIKLEPVPLKGTSLDPRFVFLLDRGLDIYVWRGAQATLSSTTKARLFAEKINKNERKGKAEITLLVQGQELPEFWEALGGEPSEIKKHVPEDFWPPQPKLYKVGLGLGYLELPQINYKLSVEHKQRPKVELMPRMRLLQSLLDTRCVYILDCWSDVFIWLGRKSPRLVRAAALKLGQELCGMLHRPRHATVSRSLEGTEAQVFKAKFKNWDDVLTVDYTRNAEAVLQSPGLSGKVKRDAEKKDQMKADLTALFLPRQPPMSLAEAEQLMEEWNEDLDGMEGFVLEGKKFARLPEEEFGHFYTQDCYVFLCRYWVPVEYEEEEKKEDKEEKAEGKEGEEATAEAEEKQPEEDFQCIVYFWQGREASNMGWLTFTFSLQKKFESLFPGKLEVVRMTQQQENPKFLSHFKRKFIIHRGKRKAVQGAQQPSLYQIRTNGSALCTRCIQINTDSSLLNSEFCFILKVPFESEDNQGIVYAWVGRASDPDEAKLAEDILNTMFDTSYSKQVINEGEEPENFFWVGIGAQKPYDDDAEYMKHTRLFRCSNEKGYFAVTEKCSDFCQDDLADDDIMLLDNGQEVYMWVGTQTSQVEIKLSLKACQVYIQHMRSKEHERPRRLRLVRKGNEQHAFTRCFHAWSAFCKALA |  | -0.8907 |  | 1.165

Continued, in another order:

Row | Difference (log2), PP1 vs untreated ([1]; log2 difference, pairwise comparison PP1 vs untreated, label-free quantification, 3 replicates each) | Difference (log2), PP1 vs untreated [1, 2] [log2] | Molecule | Difference (log2), untreated vs GFP (GFP-14-3-3β; log2 difference, pairwise comparison untreated vs GFP, label-free quantification, 3 replicates each) | Difference (log2), untreated vs GFP (GFP-14-3-3β; [3]) [log2]
7 |  | -0.8796 | YWHAH (protein, UniProt Q04917 2-246, looked up) 14-3-3 protein eta: GDREQLLQRARLAEQAERYDDMASAMKAVTELNEPLSNEDRNLLSVAYKNVVGARRSSWRVISSIEQKTMADGNEKKLEKVKAYREKIEKELETVCNDVLSLLDKFLIKNCNDFQYESKVFYLKMKGDYYRYLAEVASGEKKNSVVEASEAAYKEAFEISKEQMQPTHPIRLGLALNFSVFYYEIQNAPEQACLLAKQAFDDAIAELDTLNEDSYKDSTLIMQLLRDNLTLWTSDQQDEEAGEGN |  | 7.762
8 |  | -0.8873 | SH3BP5L (protein, UniProt Q7L8J4 1-393, looked up) SH3 domain-binding protein …: MAELRQVPGGRETPQGELRPEVVEDEVPRSPVAEEPGGGGSSSSEAKLSPREEEELDPRIQEELEHLNQASEEINQVELQLDEARTTYRRILQESARKLNTQGSHLGSCIEKARPYYEARRLAKEAQQETQKAALRYERAVSMHNAAREMVFVAEQGVMADKNRLDPTWQEMLNHATCKVNEAEEERLRGEREHQRVTRLCQQAEARVQALQKTLRRAIGKSRPYFELKAQFSQILEEHKAKVTELEQQVAQAKTRYSVALRNLEQISEQIHARRRGGLPPHPLGPRRSSPVGAEAGPEDMEDGDSGIEGAEGAGLEEGSSLGPGPAPDTDTLSLLSLRTVASDLQKCDSVEHLRGLSDHVSLDGQELGTRSGGRRGSDGGARGGRHQRSVSL |  | 3.944
9 |  | -0.8415 | UTP18 (protein, UniProt Q9Y5J1 1-556, looked up) U3 small nucleolar …: MPPERRRRMKLDRRTGAKPKRKPGMRPDWKAGAGPGGPPQKPAPSSQRKPPARPSAAAAAIAVAAAEEERRLRQRNRLRLEEDKPAVERCLEELVFGDVENDEDALLRRLRGPRVQEHEDSGDSEVENEAKGNFPPQKKPVWVDEEDEDEEMVDMMNNRFRKDMMKNASESKLSKDNLKKRLKEEFQHAMGGVPAWAETTKRKTSSDDESEEDEDDLLQRTGNFISTSTSLPRGILKMKNCQHANAERPTVARISSVQFHPGAQIVMVAGLDNAVSLFQVDGKTNPKIQSIYLERFPIFKACFSANGEEVLATSTHSKVLYVYDMLAGKLIPVHQVRGLKEKIVRSFEVSPDGSFLLINGIAGYLHLLAMKTKELIGSMKINGRVAASTFSSDSKKVYASSGDGEVYVWDVNSRKCLNRFVDEGSLYGLSIATSRNGQYVACGSNCGVVNIYNQDSCLQETNPKPIKAIMNLVTGVTSLTFNPTTEILAIASEKMKEAVRLVHLPSCTVFSNFPVIKNKNISHVHTMDFSPRSGYFALGNEKGKALMYRLHHYSDF |  | 2.416
